# In IntAct's records for PubMed 25465129:
# B1: Ras-associated and pleckstrin homology domains-containing protein 1 (Homo sapiens), Q70E73 (parent)
# chain: MEQLSDEEIDHGAEEDSDKEDQDLDKMFGAWLGELDKLTQSLDSDKPMEPVKRSPLRQETNMANFSYRFSIYNLNEALNQGETVDLDALMADLCSIEQELSSIGSGNSKRQITETKATQKLPVSRHTLKHGTLKGLSSSSNRIAKPSHASYSLDDVTAQLEQASLSMDEAAQQSVLEDTKPLVTNQHRRTASAGTVSDAEVHSISNSSHSSITSAASSMDSLDIDKVTRPQELDLTHQGQPITEEEQAAKLKAEKIRVALEKIKEAQVKKLVIRVHMSDDSSKTMMVDERQTVRQVLDNLMDKSHCGYSLDWSLVETVSELQMERIFEDHENLVENLLNWTRDSQNKLIFMERIEKYALFKNPQNYLLGKKETAEMADRNKEVLLEECFCGSSVTVPEIEGVLWLKDDGKKSWKKRYFLLRASGIYYVPKGKAKVSRDLVCFLQLDHVNVYYGQDYRNKYKAPTDYCLVLKHPQIQKKSQYIKYLCCDDVRTLHQWVNGIRIAKYGKQLYMNYQEALKRTESAYDWTSLSSSSIKSGSSSSSIPESQSNHSNQSDSGVSDTQPAGHVRSQSIVSSVFSEAWKRGTQLEESSKARMESMNRPYTSLVPPLSPQPKIVTPYTASQPSPPLPPPPPPPPPPPPPPPPPPPPLPSQSAPSAGSAAPMFVKYSTITRLQNASQHSGALFKPPTPPVMQSQSVKPQILVPPNGVVPPPPPPPPPPTPGSAMAQLKPAPCAPSLPQFSAPPPPLKIHQVQHITQVAPPTPPPPPPIPAPLPPQAPPKPLVTIPAPTSTKTVAPVVTQAAPPTPTPPVPPAKKQPAFPASYIPPSPPTPPVPVPPPTLPKQQSFCAKPPPSPLSPVPSVVKQIASQFPPPPTPPAMESQPLKPVPANVAPQSPPAVKAKPKWQPSSIPVPSPDFPPPPPESSLVFPPPPPSPVPAPPPPPPPTASPTPDKSGSPGKKTSKTSSPGGKKPPPTPQRNSSIKSSSGAEHPEPKRPSVDSLVSKFTPPAESGSPSKETLPPPAAPPKPGKLNLSGVNLPGVLQQGCVSAKAPVLSGRGKDSVVEFPSPPSDSDFPPPPPETELPLPPIEIPAVFSGNTSPKVAVVNPQPQQWSKMSVKKAPPPTRPKRNDSTRLTQAEISEQPTMATVVPQVPTSPKSSLSVQPGFLADLNRTLQRKSITRHGSLSSRMSRAEPTATMDDMALPPPPPELLSDQQKAGYGGSHISGYATLRRGPPPAPPKRDQNTKLSRDW
# B2: Amyloid beta A4 precursor protein-binding family B member 1-interacting protein (Mus musculus), Q8R5A3 (parent)
# chain: MGESNEDIDQMFSTLLGEMDLLTQSLGVDTLPPPDPNPPREEFNYTVGFKDLNESLNALEDQDLDALMADLVADISEAEQRTIQAQKESSQNQDRFALLRASDGQGTASGGYGASAAAIDVSHHEEALPPPPVEPMLDLLPPPPPPPPPELLSKEEEEAKAKADKIKLALEKLKEAKVKKLVVKVHMDDSSTKSLMVDERQLARDVLDNLFEKTHCDCNVDWCLYEIYPELQIERVFEDHENVVEVLSDWTRDTENKVLFLEKEERYAVFKNPQNFYLDNKGKKENKETNEKMNAKNKEYLLEESFCGTSIIVPELEGALYLKEDGKKSWKRRYFLLRASGIYYVPKGKTKTSRDLACFIQFENVNIYYGIQCKMKYKAPTDHCFVLKHPQIQKESQYIKYLCCDDARTLSQWVMGIRIAKYGKTLYDNYQRAVARAGLASRWTNLGTVGTPMPAQPSTVSSGLKTGTSQPNGQMPQAIPSAGPPLQEAQTQIETTKDEKQGLGNHSPGATRENHRPKSSLPPPPPPVRRSSDTCGSPALPSKVKGPGTCTFPHPPENFLPPPPPPPPEEDNSGLLPPPPPPPYLEEPPDFVPPPPPPAAVEDSALPPPPPPPPCLSQEITKSSPLPPKKPLVPPKRQENQGLPGAPGNSEQDFMSDLMKALQKKRGNIP
# Variants of: B1
# Conditions: with tln1_mouse Tln1, P26039
# Sequence of tln1_mouse Tln1, P26039 (P26039 whole entry): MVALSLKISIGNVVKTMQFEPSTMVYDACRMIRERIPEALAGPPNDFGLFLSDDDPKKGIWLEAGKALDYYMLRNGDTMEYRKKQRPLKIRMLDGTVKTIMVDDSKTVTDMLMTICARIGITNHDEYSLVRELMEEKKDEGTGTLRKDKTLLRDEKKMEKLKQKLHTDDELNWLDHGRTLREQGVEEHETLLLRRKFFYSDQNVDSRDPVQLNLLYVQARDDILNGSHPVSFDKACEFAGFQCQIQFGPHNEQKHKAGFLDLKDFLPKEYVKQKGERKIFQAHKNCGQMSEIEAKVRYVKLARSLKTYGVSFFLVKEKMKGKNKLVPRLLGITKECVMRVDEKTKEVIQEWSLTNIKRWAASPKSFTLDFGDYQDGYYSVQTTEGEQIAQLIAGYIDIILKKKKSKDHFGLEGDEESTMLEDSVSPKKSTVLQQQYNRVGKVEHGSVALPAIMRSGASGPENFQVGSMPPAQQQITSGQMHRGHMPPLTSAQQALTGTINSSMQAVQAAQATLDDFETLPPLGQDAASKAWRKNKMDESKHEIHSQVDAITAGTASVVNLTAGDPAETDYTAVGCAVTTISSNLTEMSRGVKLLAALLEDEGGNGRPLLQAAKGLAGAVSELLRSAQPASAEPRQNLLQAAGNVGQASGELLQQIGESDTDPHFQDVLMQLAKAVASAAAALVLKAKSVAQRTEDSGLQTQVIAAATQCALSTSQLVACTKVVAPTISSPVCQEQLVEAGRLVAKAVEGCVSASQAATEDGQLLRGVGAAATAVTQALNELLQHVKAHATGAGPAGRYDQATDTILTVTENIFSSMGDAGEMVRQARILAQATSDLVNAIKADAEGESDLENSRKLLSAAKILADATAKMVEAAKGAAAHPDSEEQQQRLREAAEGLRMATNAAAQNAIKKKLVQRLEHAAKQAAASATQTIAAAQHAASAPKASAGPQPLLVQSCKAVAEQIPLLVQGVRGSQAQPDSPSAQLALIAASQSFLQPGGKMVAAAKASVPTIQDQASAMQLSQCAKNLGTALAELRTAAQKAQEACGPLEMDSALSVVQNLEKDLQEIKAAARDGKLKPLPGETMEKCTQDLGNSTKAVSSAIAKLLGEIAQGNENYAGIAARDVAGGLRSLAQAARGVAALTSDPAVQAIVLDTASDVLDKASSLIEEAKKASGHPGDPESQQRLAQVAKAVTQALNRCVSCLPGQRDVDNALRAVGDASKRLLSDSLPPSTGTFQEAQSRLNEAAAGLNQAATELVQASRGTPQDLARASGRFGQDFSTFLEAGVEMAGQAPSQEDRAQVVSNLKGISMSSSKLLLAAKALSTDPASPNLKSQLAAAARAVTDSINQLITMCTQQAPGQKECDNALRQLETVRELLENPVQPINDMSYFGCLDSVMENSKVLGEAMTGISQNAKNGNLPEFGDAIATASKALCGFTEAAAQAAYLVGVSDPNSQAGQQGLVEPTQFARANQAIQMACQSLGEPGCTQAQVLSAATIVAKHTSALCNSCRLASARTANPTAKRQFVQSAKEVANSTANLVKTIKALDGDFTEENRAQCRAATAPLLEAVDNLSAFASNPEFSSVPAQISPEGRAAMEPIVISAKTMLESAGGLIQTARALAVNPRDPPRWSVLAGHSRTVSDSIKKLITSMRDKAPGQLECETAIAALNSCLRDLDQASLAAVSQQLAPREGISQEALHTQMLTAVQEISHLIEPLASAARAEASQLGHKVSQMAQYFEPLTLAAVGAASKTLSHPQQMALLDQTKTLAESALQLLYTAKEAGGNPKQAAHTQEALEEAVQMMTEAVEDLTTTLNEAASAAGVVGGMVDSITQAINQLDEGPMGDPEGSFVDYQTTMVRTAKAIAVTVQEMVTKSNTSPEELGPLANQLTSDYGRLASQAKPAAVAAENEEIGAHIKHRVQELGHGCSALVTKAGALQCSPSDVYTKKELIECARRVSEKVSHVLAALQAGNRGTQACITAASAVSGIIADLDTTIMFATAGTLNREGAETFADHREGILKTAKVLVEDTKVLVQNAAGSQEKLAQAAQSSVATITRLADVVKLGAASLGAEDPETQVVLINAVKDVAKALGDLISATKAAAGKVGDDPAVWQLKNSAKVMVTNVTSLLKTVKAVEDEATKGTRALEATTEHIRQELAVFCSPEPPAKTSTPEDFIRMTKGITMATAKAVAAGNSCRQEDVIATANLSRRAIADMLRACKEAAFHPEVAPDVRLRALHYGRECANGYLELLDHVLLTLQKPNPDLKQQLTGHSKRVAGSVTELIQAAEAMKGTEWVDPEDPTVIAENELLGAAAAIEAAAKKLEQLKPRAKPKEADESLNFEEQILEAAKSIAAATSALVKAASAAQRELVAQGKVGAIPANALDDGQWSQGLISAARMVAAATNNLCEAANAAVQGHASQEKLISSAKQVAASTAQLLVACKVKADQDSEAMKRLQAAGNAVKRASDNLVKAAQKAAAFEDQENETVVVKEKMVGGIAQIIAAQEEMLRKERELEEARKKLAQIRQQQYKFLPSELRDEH
row,Variant,effect of a mutation on the interaction
1,G29S,increasing interaction strength

# Variants of: B2
# Conditions: with tln1_mouse Tln1, P26039
row,Variant,effect of a mutation on the interaction
1,L15Y,disrupting interaction strength
2,S13G,disrupting interaction strength
3,D9A,decreasing interaction strength
4,E18A,disrupting interaction strength

# Variants of: B2
# Conditions: with tln1_mouse Tln1, P26039
# Remark: another data set of the same source
row,Variant,effect of a mutation on the interaction
1,S13G,decreasing interaction strength
